Reference: patent US20180355060A1 (published 2018)
Where two headings read alike, the source gives them in different places.

T1: human transglutaminase type 2 (TG2) (UniProt P21980 1-687)
T1 chain: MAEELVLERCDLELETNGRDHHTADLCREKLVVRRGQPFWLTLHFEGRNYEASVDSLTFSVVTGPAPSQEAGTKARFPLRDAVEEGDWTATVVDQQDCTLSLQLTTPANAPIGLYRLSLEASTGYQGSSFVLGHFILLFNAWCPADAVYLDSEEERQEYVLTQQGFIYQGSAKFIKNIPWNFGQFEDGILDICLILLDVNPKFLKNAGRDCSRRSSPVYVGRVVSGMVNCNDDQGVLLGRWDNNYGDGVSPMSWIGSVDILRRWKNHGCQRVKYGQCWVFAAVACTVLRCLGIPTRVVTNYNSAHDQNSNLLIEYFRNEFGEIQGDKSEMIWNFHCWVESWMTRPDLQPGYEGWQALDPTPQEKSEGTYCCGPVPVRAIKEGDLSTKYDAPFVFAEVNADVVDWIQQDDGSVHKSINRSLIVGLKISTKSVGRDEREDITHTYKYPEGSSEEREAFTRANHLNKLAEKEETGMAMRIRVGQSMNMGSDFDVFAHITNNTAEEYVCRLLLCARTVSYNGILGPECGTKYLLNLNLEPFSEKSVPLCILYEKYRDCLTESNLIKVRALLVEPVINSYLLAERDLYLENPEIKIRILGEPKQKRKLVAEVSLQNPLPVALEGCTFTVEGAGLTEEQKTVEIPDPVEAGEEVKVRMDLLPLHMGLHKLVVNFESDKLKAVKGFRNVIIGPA

T2: cynomolgus monkey TG2 (cynomolgus monkey, UniProt A0A2K5VXI8 2-687)
T2 chain: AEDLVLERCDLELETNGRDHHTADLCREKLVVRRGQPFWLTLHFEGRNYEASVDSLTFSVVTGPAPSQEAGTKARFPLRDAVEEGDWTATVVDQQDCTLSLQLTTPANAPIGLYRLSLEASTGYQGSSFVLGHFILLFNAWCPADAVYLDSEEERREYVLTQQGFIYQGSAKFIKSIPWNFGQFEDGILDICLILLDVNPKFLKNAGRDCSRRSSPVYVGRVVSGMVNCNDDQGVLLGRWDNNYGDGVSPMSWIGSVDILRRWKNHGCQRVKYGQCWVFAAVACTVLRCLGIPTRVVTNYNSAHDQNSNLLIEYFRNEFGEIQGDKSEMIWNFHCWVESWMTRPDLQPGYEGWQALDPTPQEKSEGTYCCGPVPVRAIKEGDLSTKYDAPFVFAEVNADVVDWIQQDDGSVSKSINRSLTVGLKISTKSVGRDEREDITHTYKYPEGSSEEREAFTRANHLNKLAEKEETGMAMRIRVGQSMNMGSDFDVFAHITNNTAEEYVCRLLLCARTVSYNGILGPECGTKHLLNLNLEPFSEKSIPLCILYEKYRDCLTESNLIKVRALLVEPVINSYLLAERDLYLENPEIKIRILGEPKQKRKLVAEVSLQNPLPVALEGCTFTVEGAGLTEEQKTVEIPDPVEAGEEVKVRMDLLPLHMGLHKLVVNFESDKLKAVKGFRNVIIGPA


Tests used:
[1] = biological target: T1, human transglutaminase type 2 (TG2); assay: enzyme inhibition
[2] = biological target: T1, human transglutaminase type 2 (TG2); assay: enzyme inhibition
cynomolgus monkey TG2 [3] = biological target: T2, cynomolgus monkey TG2; assay: ELISA
[4] = biological target: T1, human transglutaminase type 2 (TG2); assay: enzyme inhibition
[5] = biological target: T1, human transglutaminase type 2 (TG2); assay: ELISA
[6] = biological target: T1, human transglutaminase type 2 (TG2); assay: enzyme inhibition
cynomolgus monkey TG2 [7] = biological target: T2, cynomolgus monkey TG2; assay: ELISA
[8] = biological target: T1, human transglutaminase type 2 (TG2); assay: ELISA
cynomolgus monkey TG2 [9] = biological target: T2, cynomolgus monkey TG2; assay: enzyme inhibition

| EC50 [2] | IC50 [6] | EC50 (cynomolgus monkey TG2 [7]) | EC50 [8] | Binder | further results |
| --- | --- | --- | --- | --- | --- |
| – | 5.99 nM | 0.0561 nM | ~0.0474 nM | hBB001AA humanised BB7 antibody (BB7 RHA with BB7 RKA) (antibody, V domains shown) VH: EVQLLESGGGLVQPGGSLRLSCAASGIIFSSSAMSWVRQAPGKGLEWVATISSGGRSTYYPDSVKGRFTVSRDSSKNTLYLQMNSLRAEDTAVYYCAKLISPYWGQGTLVTVSS VL: DIKMTQSPSSLSASVGDRVTITCKASQDINSYLTWFQQKPGKAPKTLIYLTNRLMDGVPSRFSGSGSGQEFLLTISSLQPEDFATYYCLQYVDFPYTFGQGTKVEIK | IC50 (cynomolgus monkey TG2 [9]): 8.51 nM |
| – | 0.985 nM | 0.0738 nM | 0.0627 nM | hBB001BB humanised BB7 antibody (BB7 RHB with BB7 RKB) (antibody, V domains shown) VH: EVQLLESGGGLVQPGGSLRLSCAASGFTFSSSAMSWVRQAPGKGLEWVSTISSGGRSTYYPDSVKGRFTISRDNSKNTLYLQMNSLRAEDTAVYYCAKLISPYWGQGTLVTVSS VL: DIQMTQSPSSLSASVGDRVTITCKASQDINSYLTWFQQKPGKAPKSLIYLTNRLMDGVPSRFSGSGSGTDFFLTISSLQPEDFATYYCLQYVDFPYTFGQGTKVEIK | – |

The next lines start with the binder.

| Binder | EC50 [2] | IC50 [6] | EC50 (cynomolgus monkey TG2 [7]) | EC50 [8] | further results |
| --- | --- | --- | --- | --- | --- |
| DH2 murine monoclonal anti-TG2 antibody (antibody, V domains shown) VH: not shown VL: QIVLTQSPAIMSASPGEKVTMTCSASSSVSYMYWYQQKPGSSPRLLIYDTSNLASGVPVRFSGSGSGTSYSLTISRMEAEDAATFYCQQWSSSPLTFGAGTKLELK | – | – | – | – | EC50 [1]: ~7000 nM |
| DD9 murine monoclonal anti-TG2 antibody (antibody, V domains shown) VH: not shown VL: QIVLTQSPAIMSASPGEKVTMTCSASSSVDYMYWYQQKPGSSPRLLIYDTSNLASGVPVRFSGSGSGTSYSLTISRMGAEDAATYYCQQWNSSPLTFGAGTKLELK | 564 nM | – | – | – | – |
| cAB003 chimeric anti-TG2 antibody (murine AB1 variable regions, human IgG1 and human kappa) (antibody, V domains shown) VH: EVQLVESGGGLVKPGGSLKLSCAASGFTLSSSAMSWVRQTPDRRLEWVATISVGGGKTYYPDSVKGRFTISRDNAKNTLYLQMNSLRSEDTAMYYCAKLISLYWGQGTTLTVSS VL: DIKMTQSPSSMYASLGERVTITCKASQDINSYLTWFQQKPGKSPKTLIYRTNRLFDGVPSRFSGSGSGQDFFLTISSLEYEDMGIYYCLQYDDFPYTFGGGTKLEIK | – | – | – | – | EC50 (cynomolgus monkey TG2 [3]): 0.0568 nM; IC50 [4]: 1.17 nM; EC50 [5]: 0.0614 nM |
| DC1 murine monoclonal anti-TG2 antibody (antibody, V domains shown) VH: EVQLVESGGGLVKPGGSLKLSCAASGFTLSTHAMSWVRQTPEKRLEWVATISSGGRSTYYPDSVKGRFTISRDNVKNTLYLQLSSLRSEDTAVYFCARLISTYWGQGTTLTVSS VL: DITMTQSPSSIYASLGERVTITCKASQDINSYLTWFQQKPGKSPKILIYLVNRLVDGVPSRFSGSGSGQDYALTISSLEYEDMGIYYCLQYDDFPYTFGGGTKLEIK | 0.571 nM | – | – | – | – |
